Results reported in patent US9994881B2, “Functionalized carboxylic acids and alcohols by reverse fatty acid oxidation in engineered microbes” (William Marsh Rice University, priority 2011, dated 2018).
Marks after values point to notes of the source that are not given here.

Assays:
[1] = thiolase activity in the reverse direction (loss of acetoacetyl-CoA at 303 nm); assay type: biochemical; conditions: substrate Acetoacetyl-CoA; supernatant fraction; AtoB expressed from pCA24N, FadA from pUCBB-ntH6
Procedure: (§1) Cultures for enzymatic assays were grown overnight in 100 mL of LB media at 37° C. in 250 mL baffled flasks (Wheaton Industries, Inc., Millville, N.J.) in E. coli BL21 (DE3) cells induced with either 1 mM IPTG (pCA24N, pTrcHis2A) or 1 mM Arabinose (pUCBB-pBAD) at an OD600˜0.6, or expressed constitutively (pUCBB-ntH6). Reactions were monitored on either a Synergy HT plate reader (BioTek Instruments, Inc., Winooski, Vt.) at 25° C. (for reactions monitored at 300 nm or higher) or in a Biomate 5 Spectrophotometer (Thermo Scientific, Waltham, Mass.) for reactions at 263 nm. […]
(§2) For kinetic characterization, his-tagged proteins of AtoB, FadA, FadB, caHBD, egTER were purified from the B-PER supernatant fractions using Talon Metal Affinity Resin (Clontech Laboratories, Inc., Mountain View, Calif.) using gravity purification. […] Enzyme concentration was established by measuring the absorbance at […] and extinction coefficients predicted for each enzyme by the ProtParam program (web.expasy.org/protparam/).
(§3) For kinetic characterization, an appropriate amount of enzyme was established by checking linear range near predicted KM values. Then, the rates were measured for a range of substrates in order to establish kcat and KM. […]

[2] = forward thiolase assay (biosynthetic direction), coupled with caHBD; assay type: biochemical; conditions: substrate Acetyl-CoA; supernatant fraction; AtoB expressed from pCA24N, FadA from pUCBB-ntH6
Procedure: as §1, §2, §3

[3] = target: T1, E. coli YciA (acyl-CoA thioesterase, NP_415769.1), wild type (Escherichia coli, UniProt P0A8Z0); experiment: Thioesterase kinetics (production of TNB at 412 nm); conditions: pH 7.5, 200 mM KCl, DTNB, 25° C.
T1 sequence (P0A8Z0 1-132): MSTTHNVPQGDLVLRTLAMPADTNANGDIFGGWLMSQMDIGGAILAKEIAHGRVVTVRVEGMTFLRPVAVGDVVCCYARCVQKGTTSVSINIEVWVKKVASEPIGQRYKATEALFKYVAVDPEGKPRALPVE
Procedure: Cells were lysed using Bacterial Protein Extraction Reagent (B-PER) (Thermo Scientific, Waltham, Mass.) as per the prescribed protocol in order to obtain the supernatant containing the active enzymes.
For kinetic characterization, an appropriate amount of enzyme was established by checking linear range near predicted KM values. Then, the rates were measured for a range of substrates in order to establish kcat and KM. In the cases of FadB for the crotonase reaction and FadA in the “forward” thiolase reaction coupled with HBD, substrate saturation could not be established, as such, the kcat/KM for the reaction was determined by dividing the linear slope of Velocity vs. [Substrate] by the amount of enzyme used in the assays. For reactions that could be saturated, Velocity vs. [Substrate] was fitted by the EnzKIN Matlab module (mathworks.com/matlabcentral/fileexchange/26653) to establish Vmax and KM.
Thioesterase activity was monitored by following the production of TNB at 412 nm (ε=4.3 mM^−1 cm^−1)^30. Reactions were carried out in the presence of 100 mM Tris pH 7.5, 200 mM KCl, 25 mM DTNB and 200 μM of the ‘-CoA’ substrate in a volume of 200 μL at 25° C.

Row | Molecule | Specific Activity [1] | Specific Activity [2] | kcat [3]
1 | AtoB: E. coli thiolase with higher specificity for short-chain acyl-CoA molecules | 0.36 ± 0.05^b μmol/mg/min | 0.919 ± 0.002^b μmol/mg/min | –
2 | CC(=O)SCCNC(=O)CCNC(=O)[C@H](O)C(C)(C)COP(=O)(O)OP(=O)(O)OC[C@H]1O[C@@H](n2cnc3c(N)ncnc32)[C@H](O)[C@@H]1OP(=O)(O)O [Acetyl-CoA] | – | – | 6.9 ± 0.1 s⁻¹
